Measurements from paper PMC4722456.

biological target: actin from chicken skeletal muscle (filamentous) (chicken) (UniProt P68139)

Km for actin of the actin-activated Mg2+-ATPase (Michaelis-Menten fit) | Substance
4.99 µM | Drosophila melanogaster indirect flight muscle myosin subfragment 1, converter mutant R759E (domain or fragment)
3.58 µM | Drosophila melanogaster indirect flight muscle myosin subfragment 1, double mutant R759E/N509K (domain or fragment)
5.77 µM | Drosophila melanogaster indirect flight muscle myosin subfragment 1, wild type (domain or fragment)
